Reference: patent US20190352660A1 (PLANT BIOSCIENCE, published 2019)

Target: T1, GST-GUS (UniProt P05804 1-603, limits assumed)
T1 construct: Negative control bait; also called GST-tagged beta-glucuronidase; negative control GST-GUS; not shown: GST tag
Experiment: in vitro GST pull-down on glutathione sepharose beads, immunoblot for GST and FLAG
Experimental: E. coli expressed GST-tagged bait proteins were incubated with E. coli expressed FLAG-tagged prey proteins before purification on glutathione sepharose beads and immunoblotting for GST and FLAG.
Following this growth phase, the cultures were centrifuged at 4500×g for 10 minutes, the supernatants were discarded and the pellets resuspended at 4° C. in 2.5 ml TGH Buffer (50 mM HEPES (pH7.5), 150 mM NaCl, 1% Triton-X-100, 10% Glycerol, 1 mM DTT, 1 complete EDTA-free protease inhibitor tablet (per 50 ml) (Roche 11873580001)). The bacterial suspension was then sonicated (on ice) for four bursts of ten seconds, separated by 20-second intervals, before being centrifuged at 12 000×g for 20 minutes to pellet any cellular debris. Cleared sonicates were then stored on ice while a 50% slurry of washed glutathione sepharose beads (GE Life Sciences 17-0756-01) was prepared according to the manufacturer's instructions. 20 μl of the 50% glutathione sepharose slurry was then combined with 2.5 ml of protein extract from bait protein (GST-tagged) expressing cells and 2.5 ml of protein extract from prey protein (HA-/FLAG-/HIS-tagged) expressing cells. […] After washing, proteins were eluted with 35 μl GST-elution buffer (50 mM TRIS-glycine (pH8.0), 10 mM reduced glutathione) over 30 minutes at 4° C. before being analysed by western blot analysis. […]

T1 sequence (P05804 whole entry): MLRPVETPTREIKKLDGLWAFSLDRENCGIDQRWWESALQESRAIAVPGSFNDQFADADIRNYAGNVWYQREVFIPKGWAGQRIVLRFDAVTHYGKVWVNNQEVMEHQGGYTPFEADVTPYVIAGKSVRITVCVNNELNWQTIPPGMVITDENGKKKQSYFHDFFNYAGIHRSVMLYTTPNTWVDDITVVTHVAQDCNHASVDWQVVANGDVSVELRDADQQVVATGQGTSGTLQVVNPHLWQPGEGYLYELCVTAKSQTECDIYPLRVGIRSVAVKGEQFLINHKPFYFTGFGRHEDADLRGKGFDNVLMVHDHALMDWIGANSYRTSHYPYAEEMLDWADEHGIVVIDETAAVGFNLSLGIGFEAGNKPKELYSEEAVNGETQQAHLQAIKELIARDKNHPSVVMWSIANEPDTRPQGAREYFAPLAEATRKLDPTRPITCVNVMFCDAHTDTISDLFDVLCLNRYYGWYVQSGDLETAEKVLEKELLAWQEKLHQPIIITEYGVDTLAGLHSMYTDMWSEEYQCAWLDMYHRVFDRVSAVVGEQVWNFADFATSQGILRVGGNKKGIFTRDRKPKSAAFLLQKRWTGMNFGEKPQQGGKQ

binding result	Binder
no binding	FLAG-DA1 (other, E. coli expressed prey protein; also called FLAG-tagged wild-type DA1; AtDA1; not shown: FLAG tag) MGWFNKIFKGSNQRLRVGNNKHNHNVYYDNYPTASHDDEPSAADTDADNDEPHHTQEPSTSEDNTSNDQENEDIDRAIALSLLEENQEQTSISGKYSMPVDEDEQLARALQESMVVGNSPRHKSGSTYDNGNAYGAGDLYGNGHMYGGGNVYANGDIYYPRPITFQMDFRICAGCNMEIGHGRFLNCLNSLWHPECFRCYGCSQPISEYEFSTSGNYPFHKACYRERYHPKCDVCSHFIPTNHAGLIEYRAHPFWVQKYCPSHEHDATPRCCSCERMEPRNTRYVELNDGRKLCLECLDSAVMDTMQCQPLYLQIQNFYEGLNMKVEQEVPLLLVERQALNEAREGEKNGHYHMPETRGLCLSEEQTVSTVRKRSKHGTGKWAGNITEPYKLTRQCEVTAILILFGLPRLLTGSILAHEMMHAWMRLKGFRTLSQDVEEGICQVMAHKWLDAELAAGSTNSNAASSSSSSQGLKKGPRSQYERKLGEFFKHQIESDASPVYGDGFRAGRLAVHKYGLRKTLEHIQMTGRFPV
no binding	FLAG-da1lim8 (other, E. coli expressed prey protein; It is a DA1 variant with a mutated LIM domain; also called FLAG-tagged DA1lim8; not shown: FLAG tag) MGWFNKIFKGSNQRLRVGNNKHNHNVYYDNYPTASHDDEPSAADTDADNDEPHHTQEPSTSEDNTSNDQENEDIDRAIALSLLEENQEQTSISGKYSMPVDEDEQLARALQESMVVGNSPRHKSGSTYDNGNAYGAGDLYGNGHMYGGGNVYANGDIYYPRPITFQMDFRIGAGGNMEIGHGRFLNCLNSLWHPECFRGYGGSQPISEYEFSTSGNYPFHKACYRERYHPKCDVCSHFIPTNHAGLIEYRAHPFWVQKYCPSHEHDATPRCCSCERMEPRNTRYVELNDGRKLCLECLDSAVMDTMQCQPLYLQIQNFYEGLNMKVEQEVPLLLVERQALNEAREGEKNGHYHMPETRGLCLSEEQTVSTVRKRSKHGTGKWAGNITEPYKLTRQCEVTAILILFGLPRLLTGSILAHEMMHAWMRLKGFRTLSQDVEEGICQVMAHKWLDAELAAGSTNSNAASSSSSSQGLKKGPRSQYERKLGEFFKHQIESDASPVYGDGFRAGRLAVHKYGLRKTLEHIQMTGRFPV
